Data from publication doi:10.1101/2023.12.18.572142 (bioRxiv, 2023).
Like-named read-outs stand apart in the source and are kept apart here. Each block holds one molecule with its values, some of them ahead of it.

Tests used:
Experiment in all cases: SPR
cat Fcμ–J complex (cat) = molecular target: cat Fcμ–J complex (cat)
mouse Fcμ–J complex = molecular target: T1, mouse Fcμ–J complex (mouse, UniProt P01872 104-454; P01592 22-159)
T1 sequence (looked up) 1: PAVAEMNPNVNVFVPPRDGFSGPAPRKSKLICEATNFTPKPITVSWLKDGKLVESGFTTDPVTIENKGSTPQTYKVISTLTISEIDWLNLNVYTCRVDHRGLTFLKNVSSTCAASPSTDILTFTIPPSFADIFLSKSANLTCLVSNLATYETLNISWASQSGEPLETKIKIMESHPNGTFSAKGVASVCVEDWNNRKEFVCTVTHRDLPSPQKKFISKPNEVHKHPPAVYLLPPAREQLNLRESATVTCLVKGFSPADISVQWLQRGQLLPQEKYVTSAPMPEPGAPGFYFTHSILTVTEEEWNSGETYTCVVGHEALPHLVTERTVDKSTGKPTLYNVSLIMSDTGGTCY
T1 sequence (looked up) 2: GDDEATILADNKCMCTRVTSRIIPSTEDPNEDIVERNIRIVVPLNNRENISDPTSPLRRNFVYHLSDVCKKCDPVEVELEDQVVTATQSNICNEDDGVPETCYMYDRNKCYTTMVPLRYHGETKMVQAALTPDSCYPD

[1] = molecular target: T2, human Fcμ–J complex (pentameric IgM core: IgM-Fc pentamer and J chain) (human, UniProt P01871-1 106-453; P01591 23-159)
[2] = molecular target: T2, human Fcμ–J complex (pentameric IgM …); remark: listed apart in the source
[3] = molecular target: T2, human Fcμ–J complex (pentameric IgM …); remark: listed apart in the source

Kd (cat Fcμ–J complex (cat)): 11 nM
Molecule: cat CD5L (3-SRCR isoform) (from UniProt A0A1E1GEY0 20-355) (natural protein)

Kd (mouse Fcμ–J complex): 5 nM
B1: mouse CD5L (natural protein, UniProt Q9QWK4 22-352, looked up)
chain: ESPTKVQLVGGAHRCEGRVEVEHNGQWGTVCDDGWDRRDVAVVCRELNCGAVIQTPRGASYQPPASEQRVLIQGVDCNGTEDTLAQCELNYDVFDCSHEEDAGAQCENPDSDLLFIPEDVRLVDGPGHCQGRVEVLHQSQWSTVCKAGWNLQVSKVVCRQLGCGRALLTYGSCNKNTQGKGPIWMGKMSCSGQEANLRSCLLSRLENNCTHGEDTWMECEDPFELKLVGGDTPCSGRLEVLHKGSWGSVCDDNWGEKEDQVVCKQLGCGKSLHPSPKTRKIYGPGAGRIWLDDVNCSGKEQSLEFCRHRLWGYHDCTHKEDVEVICTDFDV

Kd [1]: 30 nM
B2: human CD5L (CD5 antigen-like) (natural protein, UniProt O43866 20-347, looked up)
chain: SPSGVRLVGGLHRCEGRVEVEQKGQWGTVCDDGWDIKDVAVLCRELGCGAASGTPSGILYEPPAEKEQKVLIQSVSCTGTEDTLAQCEQEEVYDCSHDEDAGASCENPESSFSPVPEGVRLADGPGHCKGRVEVKHQNQWYTVCQTGWSLRAAKVVCRQLGCGRAVLTQKRCNKHAYGRKPIWLSQMSCSGREATLQDCPSGPWGKNTCNHDEDTWVECEDPFDLRLVGGDNLCSGRLEVLHKGVWGSVCDDNWGEKEDQVVCKQLGCGKSLSPSFRDRKCYGPGVGRIWLDNVRCSGEEQSLEQCQHRFWGFHDCTHQEDVAVICSG

Kd [2]: 0.3 nM
Kd [3]: 7.2 nM
B3: D1 domain of FcμR (domain or fragment, human)
chain: RILPEVKVEGELGGSVTIKCPLPEMHVRIYLCREMAGSGTCGTVVSTTNFIKAEYKGRVTLKQYPRKNLFLVEVTQLTESDSGVYACGAGMNTDRGKTQKVTLNVHS
